As a reminder, the IC50 is the concentration that inhibits the measured activity by half. What is called amount remaining is the share of the starting amount still present when the sample was taken. As a reminder, the logP is the decadic logarithm of the partition coefficient of the neutral form, usually between octanol and water. Higher therefore signals higher lipophilicity.

The subject of one data set is GRPR. Set-up: method as in PMID 22080443, PMID 9437737. The settings on record: literature value for reference peptide; ref [32],[39]; cited from earlier work.
The nature of another data set: in vitro. Particulars: human, human serum.
The procedure of data set [1]:
The octanol–water partition coefficients (Po/w) of the radioconjugates (20 µL, typically 1 to 5 MBq) were determined by the “shake-flask” method, as previously described.

Method for in vitro: The radiochemical stability of the radioconjugates was evaluated in vitro by the incubation of the four radioconjugates at 37 °C in PBS, in cell culture media (CCM) and human serum (HS) for 24 h, followed by HPLC analysis.

In the case of “D-Phe-Gln-Trp-Ala-Val-Gly-His-Sta-Leu-NH2 [AR]”, the IC50 with GRPR is 2.9 ± 0.6 nM.
In the data set “in vitro”, `CC(C)C[C@H](NC(=O)C[C@H](O)[C@H](CC(C)C)NC(=O)[C@H](Cc1c[nH]cn1)NC(=O)CNC(=O)[C@@H](NC(=O)[C@H](C)NC(=O)[C@H](Cc1c[nH]c2ccccc12)NC(=O)[C@H](CCC(N)=O)NC(=O)[C@@H](Cc1ccccc1)NC(=O)CCOCCOCCOCCOCCNC(=O)OC1CCCc2c(cnnc2-c2ccc(CNC(=O)CCC(C(=O)O)N3CCN(CC(=O)O)CCN(CC(=O)O)CCN(CC(=O)O)CC3)cc2)CC1)C(C)C)C(N)=O` (stereo partly drawn) [[^111In]In-DOTAGA-Tz-TCO-PEG4-AR, metal not drawn] returned an amount remaining at 24 h of approximately 70%. In addition, in data set [1], the logP was -1.18 ± 0.05.

These data come from article PMC9785946, “Bioorthogonal Chemistry Approach for the Theranostics of GRPR-Expressing Cancers” (Pharmaceutics, 2022).
